B1: Cannabinoid receptor 1 (Homo sapiens), P21554 (parent)
chain: MKSILDGLADTTFRTITTDLLYVGSNDIQYEDIKGDMASKLGYFPQKFPLTSFRGSPFQEKMTAGDNPQLVPADQVNITEFYNKSLSSFKENEENIQCGENFMDIECFMVLNPSQQLAIAVLSLTLGTFTVLENLLVLCVILHSRSLRCRPSYHFIGSLAVADLLGSVIFVYSFIDFHVFHRKDSRNVFLFKLGGVTASFTASVGSLFLTAIDRYISIHRPLAYKRIVTRPKAVVAFCLMWTIAIVIAVLPLLGWNCEKLQSVCSDIFPHIDETYLMFWIGVTSVLLLFIVYAYMYILWKAHSHAVRMIQRGTQKSIIIHTSEDGKVQVTRPDQARMDIRLAKTLVLILVVLIICWGPLLAIMVYDVFGKMNKLIKTVFAFCSMLCLLNSTVNPIIYALRSKDLRHAFRSMFPSCEGTAQPLDNSMGDSDCLHKHANNAASVHRAAESCIKSTVKIAKVTMSVSTDTSAEAL
partner: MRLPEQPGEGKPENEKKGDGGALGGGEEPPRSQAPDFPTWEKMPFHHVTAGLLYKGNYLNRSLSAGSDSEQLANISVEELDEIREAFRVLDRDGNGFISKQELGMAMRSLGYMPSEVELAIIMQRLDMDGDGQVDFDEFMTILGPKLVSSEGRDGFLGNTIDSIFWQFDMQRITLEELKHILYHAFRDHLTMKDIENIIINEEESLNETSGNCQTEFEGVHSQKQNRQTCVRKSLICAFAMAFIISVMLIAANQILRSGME

In the test the parent is B1. The settings on record: with cabp8_human CALN1, Q9BXU9.
For the variant T321A;S322A, the “effect of a mutation on the interaction” value was “disrupting interaction strength”.

Values taken from IntAct's records for PubMed 30073165.
